Measured values: patent US20250177447A1

B1: CAR1, GPRC5D chimeric antigen receptor (CAR 1 (VL-VH)), expressed on human T cells (protein, part only; not given: CAR backbone and scFv linker, not shown: small tags and cut ends)
chain, part: SSELTQDPAASVALGQTVRITCQGDSVRTYYAGWYQQKPGQAPVLVIYGKNHRPSGIPDRFSGSTSGNTASLTITGVQAEDEADYYCNSRDSSANPVFGGGTKVTVLQVQLVQSGAEVKKPGASVKVSCKASGYTFTSYYMHWVRQAPGQGLEWMGWINPNSGGTNYAQKFQGRVTITADKSTSTAYMELNSLRAEDTAVYYCVRSKGRAARNYYYMDVWGKGTTVTVSS
B2: CAR2, GPRC5D chimeric antigen receptor (CAR 2 (VL-VH)), expressed on human T cells (protein, part only; not given: CAR backbone and scFv linker, not shown: small tags and cut ends)
chain, part: SSELTQDPAASVALGQTVKITCQGDSLRRYFASWYQQKPGQAPTLVTYGKNRRPSGVPDRLSGSSSGDTASLTITGAQAEDEGDYYCNSRDRSGTVVFGGGTKLTVLEVQLVESGGGVVQPGRSLRLSCAASGFTFSSYAMSWVRQAPGKGLEWVSAISGSGGSTYYAGSVKGRFTISRDNSKNTLYLQMNSLRAEDTAVYYCARDLYGYRYYYYGMDVWGQGTMVTVSS

Molecular target: G protein-coupled receptor class C group 5 member D (GPRC5D) on tumor cells (MM.1S, RPMI8226, NCI-H929) (human) (UniProt Q9NZD1)
Test: cell-based or functional assay

Sequence of UniProt Q9NZD1 (Q9NZD1 whole entry): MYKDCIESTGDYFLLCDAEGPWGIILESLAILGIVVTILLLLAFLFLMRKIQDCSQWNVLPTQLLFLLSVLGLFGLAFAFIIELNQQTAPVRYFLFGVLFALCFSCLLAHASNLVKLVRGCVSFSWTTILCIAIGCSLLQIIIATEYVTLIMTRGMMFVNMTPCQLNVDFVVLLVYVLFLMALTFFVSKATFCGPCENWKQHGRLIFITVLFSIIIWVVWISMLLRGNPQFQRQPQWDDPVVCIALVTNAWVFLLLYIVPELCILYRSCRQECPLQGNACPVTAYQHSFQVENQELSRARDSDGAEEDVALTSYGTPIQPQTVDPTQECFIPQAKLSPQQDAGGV

Row | Binder | % survival of MM.1S-ffluc cells, luciferase cytotoxicity assay, 24 h, E:T 1:1 [%] | % survival of MM.1S-ffluc cells, luciferase cytotoxicity assay, 24 h, E:T 1:2 [%] | % survival of MM.1S-ffluc cells, luciferase cytotoxicity assay, 24 h, E:T 1:4 [%] | % survival of RPMI8226-ffluc cells, luciferase cytotoxicity assay, 24 h, E:T 1:1 [%] | % survival of RPMI8226-ffluc cells, luciferase cytotoxicity assay, 24 h, E:T 1:2 [%] | % survival of RPMI8226-ffluc cells, luciferase cytotoxicity assay, 24 h, E:T 1:4 [%] | % survival of RPMI8226-ffluc cells, luciferase cytotoxicity assay, 24 h, E:T 1:8 [%] | % survival of MM.1S-ffluc cells, luciferase cytotoxicity assay, 24 h, E:T 1:8 [%]
1 | B1 | 20 | 60 | 88 | 12 | 40 | 70 | 90 | –
2 | B2 | < 5 | 15 | 35 | 3 | 10 | 25 | 50 | 85
